Test results published in US20110158939A1 (published 2011).

Key:
IL-4 receptor α chain [1] = target: T1, IL-4 receptor α chain (UniProt P24394 26-232, limits assumed); assay: Biacore, IL-4 receptor α chain immobilized
T1 construct: also called IL-4Rα; IL-4-receptor alpha chain
T1 sequence (looked up): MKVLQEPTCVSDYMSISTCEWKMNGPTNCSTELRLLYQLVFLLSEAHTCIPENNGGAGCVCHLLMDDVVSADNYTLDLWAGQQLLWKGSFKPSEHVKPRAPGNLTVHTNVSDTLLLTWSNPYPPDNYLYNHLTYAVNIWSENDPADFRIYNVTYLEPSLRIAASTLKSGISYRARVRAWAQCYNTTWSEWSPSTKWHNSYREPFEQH

[2] = target: T2, wild type human Interleukin-4 (human, UniProt P05112 25-153); assay: cell-based or functional assay
T2 sequence (looked up): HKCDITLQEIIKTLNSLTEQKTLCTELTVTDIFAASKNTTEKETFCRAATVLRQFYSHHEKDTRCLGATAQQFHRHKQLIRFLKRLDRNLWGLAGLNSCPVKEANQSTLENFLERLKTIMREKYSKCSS

IL-4 receptor α chain [3] = target: T1, IL-4 receptor α chain; assay: Biacore, pre- and post-nebulized samples (Aeroneb Pro), no difference between them
IL-4 receptor α chain [4] = target: T1, IL-4 receptor α chain; assay: Biacore, IL-4 receptor α chain immobilized (n = 7)

B1: IL-4RA (mutant human IL-4 protein with the R121D/Y124D pair of substitutions) (ligand, UniProt P05112 25-153, looked up)
chain: HKCDITLQEIIKTLNSLTEQKTLCTELTVTDIFAASKNTTEKETFCRAATVLRQFYSHHEKDTRCLGATAQQFHRHKQLIRFLKRLDRNLWGLAGLNSCPVKEANQSTLENFLERLKTIMDEKDSKCSS
notes: mature; Substitution positions count on the mature 129-residue protein, not on the precursor; also called mhIL-4; IL-4 mutein
koff (IL-4 receptor α chain [1]): 0.0017 s⁻¹
kon (IL-4 receptor α chain [1]): 1.6e+07 M⁻¹ s⁻¹
TF-1/IL-4 proliferation assay, EC50 of inhibition of IL-4-induced cell proliferation [2]: 0.2 to 0.3 nM
TF-1/IL-4 proliferation assay, IC50, post nebulization (Pari LC Plus) [2]: 0.483 nM
TF-1/IL-4 proliferation assay, IC50, pre nebulization (Pari LC Plus) [2]: 0.459 nM
Kd (IL-4 receptor α chain [3]): ~0.1 nM
Kd (IL-4 receptor α chain [4]): 0.14 nM
